Target: the molecule itself
Experiment: SEC; purified hSIDT1-GFP on Superose 6 Increase 10/300 GL at 0.5 ml/min, intrinsic tryptophan fluorescence; column in 0.15 mM LMNG, 25 mM Tris-HCl pH 7.5, 200 mM NaCl; molecular weight read from a standard plot

B1: full-length human systemic RNAi defective transmembrane family member 1 (hSIDT1), C-terminal GFP-Strep-tag-II fusion (natural protein, UniProt Q9NXL6 20-827, looked up)
chain: ASPGHPAKSPRQPPAPRRDPFDAARGADFDHVYSGVVNLSTENIYSFNYTSQPDQVTAVRVYVNSSSENLNYPVLVVVRQQKEVLSWQVPLLFQGLYQRSYNYQEVSRTLCPSEATNETGPLQQLIFVDVASMAPLGAQYKLLVTKLKHFQLRTNVAFHFTASPSQPQYFLYKFPKDVDSVIIKVVSEMAYPCSVVSVQNIMCPVYDLDHNVEFNGVYQSMTKKAAITLQKKDFPGEQFFVVFVIKPEDYACGGSFFIQEKENQTWNLQRKKNLEVTIVPSIKESVYVKSSLFSVFIFLSFYLGCLLVGFVHYLRFQRKSIDGSFGSNDGSGNMVASHPIAASTPEGSNYGTIDESSSSPGRQMSSSDGGPPGQSDTDSSVEESDFDTMPDIESDKNIIRTKMFLYLSDLSRKDRRIVSKKYKIYFWNIITIAVFYALPVIQLVITYQTVVNVTGNQDICYYNFLCAHPLGVLSAFNNILSNLGHVLLGFLFLLIVLRRDILHRRALEAKDIFAVEYGIPKHFGLFYAMGIALMMEGVLSACYHVCPNYSNFQFDTSFMYMIAGLCMLKLYQTRHPDINASAYSAYASFAVVIMVTVLGVVFGKNDVWFWVIFSAIHVLASLALSTQIYYMGRFKIDLGIFRRAAMVFYTDCIQQCSRPLYMDRMVLLVVGNLVNWSFALFGLIYRPRDFASYMLGIFICNLLLYLAFYIIMKLRSSEKVLPVPLFCIVATAVMWAAALYFFFQNLSSWEGTPAESREKNRECILLDFFDDHDIWHFLSATALFFSFLVLLTLDDDLDVVRRDQIPVF
notes: human systemic RNAi defective transmembrane family member 1 (hSIDT1), full length, codon-optimized gene synthesized by GenScript, cloned into pEG BacMam; Made in cells that lack N-acetylglucosaminyltransferase I, so the protein lacks complex N-glycosylation (predicted sites N57, N67, N83, N136, N282); No cleavage of GFP-Strep-tag-II is described; Not modelled in the structure: the first 40 …
  stoichiometry N: 2

Reference: publication PMC11208740, “Structure of the human systemic RNAi defective transmembrane protein 1 (hSIDT1) reveals the conformational flexibility of its lipid binding domain” (Life Science Alliance, 2024)
